The test concerns the target PSII-LHCII supercomplexes of sucrose gradient band α3 (α3G with glutaraldehyde) (pea (Pisum sativum L., endogenous in leaves)) (UniProt P06585).

As to “PSII-LHCII supercomplexes of sucrose gradient band α3 (α3G with glutaraldehyde) (from UniProt P06585 1-344; P06006 1-353; P06004 15-473; P14226 82-329; P27520 38-265)”, the fast chlorophyll a fluorescence induction (OJIP), O–J curvature parameter C; control (sucrose gradient buffer with cations, paired) was found to be 0.35; the fast chlorophyll a fluorescence induction (OJIP), O–J curvature parameter C; no salts (salt-free buffer, unpaired) was 0.14; the fast chlorophyll a fluorescence induction (OJIP), connectivity among PSII units parameter p; control (sucrose gradient buffer with cations, paired) was determined as 0.3; the fast chlorophyll a fluorescence induction (OJIP), connectivity among PSII units parameter p; no salts (salt-free buffer, unpaired) was determined as 0.13. In addition, the fast chlorophyll a fluorescence induction (OJIP), overall grouping probability p2G; control (sucrose gradient buffer with cations, paired) worked out at 0.21; the fast chlorophyll a fluorescence induction (OJIP), overall grouping probability p2G; no salts (salt-free buffer, unpaired) was found to be 0.15; the fast chlorophyll a fluorescence induction (OJIP), probability of connectivity between PSII units ω; control (sucrose gradient buffer with cations, paired) is 0.2; the fast chlorophyll a fluorescence induction (OJIP), probability of connectivity between PSII units ω; no salts (salt-free buffer, unpaired) was determined as 0.06.

The values are drawn from PMC5577252.
